Test results reported in US20220195015A1.

Target: SARS-CoV-2 spike (S) protein on pseudotyped HIV-1 reporter virus (SARS-CoV-2) (UniProt P0DTC2)
Assay: cell-based or functional assay

Chain of C144 (antibody) (VH): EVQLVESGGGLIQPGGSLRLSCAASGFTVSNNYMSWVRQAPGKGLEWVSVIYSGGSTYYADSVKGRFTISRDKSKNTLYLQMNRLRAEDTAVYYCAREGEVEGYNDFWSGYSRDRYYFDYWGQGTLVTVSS
Chain of C144 (antibody) (VL): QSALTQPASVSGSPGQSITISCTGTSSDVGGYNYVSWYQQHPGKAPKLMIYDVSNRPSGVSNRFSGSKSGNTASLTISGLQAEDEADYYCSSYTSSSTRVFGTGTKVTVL

## C144 (antibody)
  IC50: 2.86 ng/mL
  IC90: 40.5 ng/mL
